Reference: US12649776B2, “Scaffold proteins and therapeutic nanoconjugates based on nidogen” (UNIVERSITAT AUTÒNOMA DE BARCELONA, priority 2019, dated 2026)

How the values were obtained:
[1] = literature value; cited from earlier work
[2] = Volume size distribution of protein nanoparticles and nanoconjugates by Dynamic Light Scattering (DLS); type: physicochemical; conditions: self-assembled material in storage (carbonate) buffer
Procedure: Volume size distribution of all protein nanoparticles and nanoconjugates were determined by Dynamic Light Scattering (DLS) at 633 nm in a Zetasizer Nano ZS (Malvern Instruments) in triplicate.
Volume size distribution of protein nanoparticles was determined in a Zetasizer Nano ZS (Malvern Instruments) by Dynamic Light Scattering (DLS) at 633 nm in triplicates.
The integrity of the recombinant proteins was checked by mass spectrometry (MALDI-TOF), TGX (Tris-Glycine eXtended) Stain-Free acrylamide gels electrophoresis (BioRad) and Western Blot analysis using anti-His monoclonal antibody (1:1000; Santa Cruz, ref. 57598). Protein concentration was determined by Bradford (Biorad) assay with an Albumin (Roche) standard curve. GFP fluorescence emission (510 nm) was determined on purified proteins with a Cary Eclipse fluorescence spectrophotometer (Agilent Technologies) using an excitation wavelength of 450 nm. The volume and size distribution of nanoparticles were measured by dynamic light scattering (DLS) at 633 nm through a Zetasizer Nano ZS (Malvern Instruments) using quartz cuvettes.

[3] = tested on: CXCR4+ SW1417 cells; assay: Protein internalization of EPIX4 / T22 / biparatopic nanoparticles (flow cytometry); type: cell-based, human; conditions: 1 μM
Procedure: (§1) Experiments were performed in CXCR4+ cervical and colorectal cell lines (HeLa and SW1417, respectively). HeLa cells were cultured in Eagle's Minimum Essential Medium (Gibco) and SW1417 in Dulbecco's Modified Eagle's Medium (Gibco). Both cell lines were supplemented with 10% fetal bovine serum (Gibco) and incubated in a humidified atmosphere at 37° C. and 5% (HeLa) or 10% (SW1417) of CO2.
(§2) For testing protein internalization, cells were seeded in 24-well plates (Nunc) (30000 cells wells^−1) for 24 h. Briefly, the medium was removed, and cells were washed with PBS. Then protein was incubated at 1 and 2 μM, diluted in OptiPro medium supplemented with L-Glutamine and incubated at different times, at suitable cell line conditions. Then, harsh trypsin digestion (1 mg ml^−1 for 15 min) (Gibco) was carried out to remove protein particles bound to the outer size of the cell membranes. Intracellular green fluorescence was analyzed by flow cytometry on an FACS-Calibur system (Becton Dickinson) using a 15 mW air-cooled argon ion laser at 488 nm excitation. Fluorescence emission was measured with a D detector (530/30 nm band pass filter), and manually corrected by the specific fluorescence of purified protein, to get data representative of the amount of internalized protein for comparative purposes. […]

[4] = tested on: CXCR4+ HeLa cells; assay: Protein internalization of EPIX4 / T22 / biparatopic nanoparticles (flow cytometry, AMD3100 competition, confocal); type: cell-based, human; conditions: 1 μM
Procedure: as §1, §2

Substance | Tm [1] [° C.^] | Tonset, 1 [1] [°C] | Nanoparticle size (volume size distribution, DLS) [2] [nm] | Time course of cell uptake [3] | Time course of cell uptake [4]
Human Collagen Type I: human collagen type I, literature comparator (Leikina et al) | 40.3 | 38.2 | – | – | –
T22-GFP-H6: Modular protein: T22 ligand, Green Fluorescent Protein scaffold, C-terminal poly-histidine [reference compound] | – | 75 | ~11 | high uptake at short times | high uptake at short times
